Measurements: the supplement of paper PMC9233669
Variants at the floor of the assay were thinned out.

Assays:
[1] = system: biotinyl-Phe-oxazolone; assay: self-aminoacylation, catalytic enhancement (BFO) (fold over background); higher = more active; k-Seq, kA / k0A0; sequences stand for … in GGGAAUGGAUCCACAUCUACGAAUUC…UUCACUGCAGACUUGACGAAGCUG
Summary of the method: (§1)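 Mutagenized RNA pools (0.43 μM; 21-nt variable region) were treated with 2–1250 μM of each biotinyl-aminoacyl-oxazolone. Conditions were 50 μL HEPES/NaCl/KCl/MgCl2/CaCl2 buffer, 5% acetonitrile, pH 6.9–7.0, room temperature, 90 minutes. Catalytic enhancement, the median kA relative to the uncatalyzed rate, was derived from streptavidin capture, qPCR and Illumina sequencing.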

[2] = system: biotinyl-Trp-oxazolone; assay: self-aminoacylation, catalytic enhancement (BWO) (fold over background); higher = more active; k-Seq, kA / k0A0; sequences stand for … in GGGAAUGGAUCCACAUCUACGAAUUC…UUCACUGCAGACUUGACGAAGCUG
Summary of the method: as §1

[3] = system: biotinyl-Met-oxazolone; assay: self-aminoacylation, catalytic enhancement (BMO) (fold over background); higher = more active; k-Seq, kA / k0A0; sequences stand for … in GGGAAUGGAUCCACAUCUACGAAUUC…UUCACUGCAGACUUGACGAAGCUG
Summary of the method: as §1

[4] = system: biotinyl-Leu-oxazolone; assay: self-aminoacylation, catalytic enhancement (BLO) (fold over background); higher = more active; k-Seq, kA / k0A0; sequences stand for … in GGGAAUGGAUCCACAUCUACGAAUUC…UUCACUGCAGACUUGACGAAGCUG
Summary of the method: as §1

[5] = system: biotinyl-Ile-oxazolone; assay: self-aminoacylation, catalytic enhancement (BIO) (fold over background); higher = more active; k-Seq, kA / k0A0; sequences stand for … in GGGAAUGGAUCCACAUCUACGAAUUC…UUCACUGCAGACUUGACGAAGCUG
Summary of the method: as §1

[6] = system: biotinyl-Val-oxazolone; assay: self-aminoacylation, catalytic enhancement (BVO) (fold over background); higher = more active; k-Seq, kA / k0A0; sequences stand for … in GGGAAUGGAUCCACAUCUACGAAUUC…UUCACUGCAGACUUGACGAAGCUG
Summary of the method: as §1

Sequence: AUUCACCUAGAUCAGCGGGUG [Fam2.2 aminoacylation ribozyme variant]
- self-aminoacylation [1]: 11.7
- self-aminoacylation [2]: 2.88
- self-aminoacylation [3]: 2.39
- self-aminoacylation [4]: 3.1

Sequence: AAGCUUGCUUAUAGUCGCAAG [Fam3.1 aminoacylation ribozyme variant]
- self-aminoacylation [1]: 3.55
- self-aminoacylation [5]: 2.13

Sequence: AUUCAGCUAGGUCAUCUGGUG [Fam2.2 aminoacylation ribozyme variant]
- self-aminoacylation [1]: 13.4
- self-aminoacylation [2]: 2.25
- self-aminoacylation [3]: 2.3
- self-aminoacylation [4]: 2.35

Sequence: AUUACCCUGGUUAUCGAGUGU [Fam2.1 aminoacylation ribozyme variant]
- self-aminoacylation [1]: 3.12
- self-aminoacylation [2]: 3.92
- self-aminoacylation [3]: 2.66
- self-aminoacylation [4]: 2.57

Sequence: AUUCACCUAGGUCUUCAGGUG [Fam2.2 aminoacylation ribozyme variant]
- self-aminoacylation [1]: 6.96
- self-aminoacylation [3]: 2.04
- self-aminoacylation [4]: 2.02

Sequence: AGUCACCUAGGUCAUCUGGUG [Fam2.2 aminoacylation ribozyme variant]
- self-aminoacylation [1]: 15.2
- self-aminoacylation [2]: 2.38
- self-aminoacylation [3]: 2.31
- self-aminoacylation [4]: 2.59

Sequence: AUGACCCUGGUCAUCGAGGGA [Fam2.1 aminoacylation ribozyme variant]
- self-aminoacylation [1]: 2.82
- self-aminoacylation [3]: 3.65
- self-aminoacylation [4]: 3.03

Sequence: CCGCGCUUCAAGCAAUCGGUC [Fam1B.1 aminoacylation ribozyme variant]
- self-aminoacylation [1]: 158
- self-aminoacylation [2]: 77.2
- self-aminoacylation [3]: 2.37
- self-aminoacylation [6]: 2.74
- self-aminoacylation [4]: 3.16

Sequence: AAGCUUGCUAAUAGUCGCAAU [Fam3.1 aminoacylation ribozyme variant]
- self-aminoacylation [1]: 2.59
- self-aminoacylation [2]: 2.66
- self-aminoacylation [3]: 2.34
- self-aminoacylation [5]: 2.93

Sequence: AUUCACCUAGCUCAUCGGGUG [Fam2.2 aminoacylation ribozyme variant]
- self-aminoacylation [1]: 7.85
- self-aminoacylation [6]: 2.1
- self-aminoacylation [4]: 2.05

Sequence: CCACUUCAAACAAUCGGUCUC [Fam1A.1 aminoacylation ribozyme variant]
- self-aminoacylation [1]: 75.8
- self-aminoacylation [2]: 42.2
- self-aminoacylation [3]: 2.08
- self-aminoacylation [4]: 2.13

Sequence: AUUGCCCUGGUCAUCGAGCGA [Fam2.1 aminoacylation ribozyme variant]
- self-aminoacylation [1]: 3.91
- self-aminoacylation [2]: 3.11
- self-aminoacylation [3]: 2.55
- self-aminoacylation [6]: 2.33
- self-aminoacylation [4]: 3.48

Sequence: AGGGUUGCUAAUAGUCGCAAG [Fam3.1 aminoacylation ribozyme variant]
- self-aminoacylation [1]: 4.28
- self-aminoacylation [3]: 2.18

Sequence: AAGCUUGCUAUUAGUCGCAAG [Fam3.1 aminoacylation ribozyme variant]
- self-aminoacylation [1]: 2.62
- self-aminoacylation [3]: 2.23
- self-aminoacylation [4]: 2.48

Sequence: AUUACCCUGGUCAUUGAGUGG [Fam2.1 aminoacylation ribozyme variant]
- self-aminoacylation [1]: 2.08
- self-aminoacylation [2]: 3.09
- self-aminoacylation [3]: 2.54
- self-aminoacylation [4]: 2.66

Sequence: GUUCACCUAGGUCAACGGGUG [Fam2.2 aminoacylation ribozyme variant]
- self-aminoacylation [1]: 17.5
- self-aminoacylation [2]: 3.22
- self-aminoacylation [3]: 2.11
- self-aminoacylation [4]: 2.5

Sequence: ACGUUUGCUAAUAGUCGCAAA [Fam3.1 aminoacylation ribozyme variant]
- self-aminoacylation [1]: 2.87
- self-aminoacylation [2]: 2.36
- self-aminoacylation [5]: 2.01

Sequence: AAGUCUGCUAAUAGUCGUAAG [Fam3.1 aminoacylation ribozyme variant]
- self-aminoacylation [1]: 49.6
- self-aminoacylation [2]: 9.94
- self-aminoacylation [3]: 2.5

Sequence: AUCACCCUGGUCAUCGAGGGA [Fam2.1 aminoacylation ribozyme variant]
- self-aminoacylation [1]: 12.5
- self-aminoacylation [2]: 2.94
- self-aminoacylation [3]: 2.2
- self-aminoacylation [6]: 2.03
- self-aminoacylation [4]: 3.12

Sequence: AAGUUCGCUAAUAGUCGCAAC [Fam3.1 aminoacylation ribozyme variant]
- self-aminoacylation [1]: 2.12
- self-aminoacylation [2]: 2.33
- self-aminoacylation [3]: 2.32

Sequence: AUUACCCUGGACUUCGAGUGA [Fam2.1 aminoacylation ribozyme variant]
- self-aminoacylation [1]: 11.4
- self-aminoacylation [2]: 4.38
- self-aminoacylation [3]: 2.96
- self-aminoacylation [6]: 2.17
- self-aminoacylation [4]: 3.17

Sequence: AAGGUCGCUAAUAGUCGCAAG [Fam3.1 aminoacylation ribozyme variant]
- self-aminoacylation [1]: 2.86
- self-aminoacylation [2]: 2.4
- self-aminoacylation [6]: 2.13

Sequence: AUUACUCUGGUCAUCGUGUGA [Fam2.1 aminoacylation ribozyme variant]
- self-aminoacylation [1]: 12.5
- self-aminoacylation [2]: 3.34
- self-aminoacylation [3]: 2.45
- self-aminoacylation [4]: 2.81

Sequence: AUUACCGUGGUGAUCGAGUGA [Fam2.1 aminoacylation ribozyme variant]
- self-aminoacylation [1]: 15.6
- self-aminoacylation [2]: 5.02
- self-aminoacylation [3]: 3.87
- self-aminoacylation [6]: 2.31
- self-aminoacylation [4]: 3.67

Sequence: ACUCACCUAGGUCAUCGGGUC [Fam2.2 aminoacylation ribozyme variant]
- self-aminoacylation [1]: 7.01
- self-aminoacylation [3]: 2.24

Sequence: CCCCGCUUCAAGCAAUCGGUC [Fam1B.1 aminoacylation ribozyme variant]
- self-aminoacylation [1]: 142
- self-aminoacylation [2]: 70.4
- self-aminoacylation [3]: 2.12
- self-aminoacylation [6]: 2.69
- self-aminoacylation [4]: 3.73

Sequence: AACUUUGCUAAUAGUAGCAAG [Fam3.1 aminoacylation ribozyme variant]
- self-aminoacylation [1]: 2.06
- self-aminoacylation [2]: 2.42
- self-aminoacylation [3]: 2.2

Sequence: AUUACCCAGGCCAUCGAGUGA [Fam2.1 aminoacylation ribozyme variant]
- self-aminoacylation [1]: 11
- self-aminoacylation [3]: 2.52
- self-aminoacylation [4]: 2.69

Sequence: AUUCACCUCGGUCAUCGGCUG [Fam2.2 aminoacylation ribozyme variant]
- self-aminoacylation [1]: 8.33
- self-aminoacylation [2]: 2.02
- self-aminoacylation [6]: 2.65

Sequence: CUACUGCAAACAAUCGGCCUG [Fam1A.1 aminoacylation ribozyme variant]
- self-aminoacylation [1]: 3.31
- self-aminoacylation [2]: 2.81
- self-aminoacylation [3]: 2.1
- self-aminoacylation [6]: 2.27
- self-aminoacylation [4]: 2.27

Sequence: AUACACCUAGGUCAACGGGUG [Fam2.2 aminoacylation ribozyme variant]
- self-aminoacylation [1]: 6.06
- self-aminoacylation [2]: 2.02
- self-aminoacylation [3]: 2.09
- self-aminoacylation [4]: 2.79

Sequence: AUUAACCUAGGUCAUCUGGUG [Fam2.2 aminoacylation ribozyme variant]
- self-aminoacylation [1]: 13.6
- self-aminoacylation [2]: 2.7
- self-aminoacylation [3]: 2.59
- self-aminoacylation [4]: 3.34

Sequence: AAUUUUGGUAAUAGUCGCAAG [Fam3.1 aminoacylation ribozyme variant]
- self-aminoacylation [1]: 2.19
- self-aminoacylation [3]: 2.19
- self-aminoacylation [5]: 2.06

Sequence: CUUCACCUAGAUCAUCGGGUG [Fam2.2 aminoacylation ribozyme variant]
- self-aminoacylation [1]: 8.35
- self-aminoacylation [2]: 3.41
- self-aminoacylation [3]: 3.54
- self-aminoacylation [6]: 2.12
- self-aminoacylation [4]: 2.86

Sequence: CCACACGUCAAGCAAUCGGGC [Fam1B.1 aminoacylation ribozyme variant]
- self-aminoacylation [1]: 2.86
- self-aminoacylation [6]: 2.23

Sequence: AUUACCCUGGUCCUCGUGUGA [Fam2.1 aminoacylation ribozyme variant]
- self-aminoacylation [1]: 14
- self-aminoacylation [2]: 2.73
- self-aminoacylation [3]: 2.89
- self-aminoacylation [4]: 2.88

Sequence: AUUCACCUAGCUCAUCGGGGG [Fam2.2 aminoacylation ribozyme variant]
- self-aminoacylation [3]: 2.42

Sequence: AUAACCCUGGUCAUCGAGUAA [Fam2.1 aminoacylation ribozyme variant]
- self-aminoacylation [1]: 7.47
- self-aminoacylation [2]: 2.47
- self-aminoacylation [3]: 3.64
- self-aminoacylation [4]: 3.46

Sequence: AUUCACCUAAGUCAUCGGGUU [Fam2.2 aminoacylation ribozyme variant]
- self-aminoacylation [1]: 10.7
- self-aminoacylation [3]: 2.63
- self-aminoacylation [4]: 2.55

Sequence: CCACGCUUCAAGCAAUCGGCC [Fam1B.1 aminoacylation ribozyme variant]
- self-aminoacylation [1]: 7.98
- self-aminoacylation [2]: 8.15
- self-aminoacylation [6]: 2.77

Sequence: AUUCACCUAGGUCAGCGGUUG [Fam2.2 aminoacylation ribozyme variant]
- self-aminoacylation [1]: 6.39
- self-aminoacylation [3]: 2.22

Sequence: AUUCACCUAGGUCAGCGUGUG [Fam2.2 aminoacylation ribozyme variant]
- self-aminoacylation [1]: 11
- self-aminoacylation [3]: 2.16
- self-aminoacylation [4]: 2.77

Sequence: AUUUCCCUGGUCAUCGUGUGA [Fam2.1 aminoacylation ribozyme variant]
- self-aminoacylation [1]: 27.1
- self-aminoacylation [2]: 4.8
- self-aminoacylation [3]: 3.61
- self-aminoacylation [4]: 3.65

Sequence: AAGUAUGCUAAUAGUCGCGAG [Fam3.1 aminoacylation ribozyme variant]
- self-aminoacylation [1]: 5.66
- self-aminoacylation [2]: 4.06
- self-aminoacylation [5]: 2.14
- self-aminoacylation [4]: 2.21

Sequence: AUUACCCUGGUAAUCGUGUGA [Fam2.1 aminoacylation ribozyme variant]
- self-aminoacylation [1]: 22.2
- self-aminoacylation [2]: 4.1
- self-aminoacylation [3]: 3.48
- self-aminoacylation [4]: 3.58
